Source: patent US20250313621A1

What was measured:
[1] = target: Wildtype human PAR2 expressed on cells (human) (UniProt P55085); assay: cell-based or functional assay
[2] = target: Wildtype human PAR 1 (human) (UniProt P25116); assay: cell-based or functional assay
[3] = target: V5His-huPAR2 on Flp-In CHO cells (human) (UniProt P55085); assay: FACS titration on CHO_V5HIS-huPAR2 cells versus CHO parental cells (flat), RLU, axis Ab [nM]
Sequence of V5His-huPAR2 on Flp-In CHO cells (human) (P55085 37-397 limits assumed): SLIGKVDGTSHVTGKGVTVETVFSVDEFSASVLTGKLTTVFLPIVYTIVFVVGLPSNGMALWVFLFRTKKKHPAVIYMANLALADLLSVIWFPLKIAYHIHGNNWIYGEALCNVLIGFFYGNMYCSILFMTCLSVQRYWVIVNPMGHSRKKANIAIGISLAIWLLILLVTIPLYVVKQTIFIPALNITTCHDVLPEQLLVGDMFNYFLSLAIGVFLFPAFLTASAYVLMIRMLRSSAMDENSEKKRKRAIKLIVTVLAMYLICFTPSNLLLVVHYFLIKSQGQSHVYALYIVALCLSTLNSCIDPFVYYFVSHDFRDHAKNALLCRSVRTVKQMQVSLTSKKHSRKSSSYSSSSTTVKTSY

Sequence of Wildtype human PAR2 expressed on cells (human) (P55085 37-397 limits assumed): as above
Sequence of Wildtype human PAR 1 (human) (P25116 42-425 limits assumed): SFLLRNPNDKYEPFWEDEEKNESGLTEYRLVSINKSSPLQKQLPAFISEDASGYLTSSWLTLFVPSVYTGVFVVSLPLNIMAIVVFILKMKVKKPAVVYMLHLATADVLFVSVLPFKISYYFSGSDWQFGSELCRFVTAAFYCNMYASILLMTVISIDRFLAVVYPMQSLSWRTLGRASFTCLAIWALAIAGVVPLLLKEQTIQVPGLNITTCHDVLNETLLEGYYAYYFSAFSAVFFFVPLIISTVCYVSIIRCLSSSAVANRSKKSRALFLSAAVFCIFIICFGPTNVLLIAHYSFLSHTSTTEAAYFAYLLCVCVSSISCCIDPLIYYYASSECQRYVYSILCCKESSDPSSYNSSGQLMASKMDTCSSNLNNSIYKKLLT

A % Max Inhibition, AP challenge, IP-One [1] of 100%, a % Max Inhibition, Bovine Trypsin challenge, IP-One [1] of 0% and a Human PAR1 SFLLR IC50, IP-One [2] of over 1000 nM were found for MAB3949 (antibody) in this work. The SFLLR fold inhibition, human PAR1, IP-One [2] was 0 fold and the EC50 [3] was 6.8 nM.
